In publication PMC6393296, “Intrinsically disordered regions regulate both catalytic and non-catalytic activities of the MutLα mismatch repair complex”:

What was measured:
[1] = target: Mlh1 (WT, FLAG);Pms1 (WT) (Saccharomyces cerevisiae (expressed in …, UniProt P38920;P14242 1-769;1-873, |)); assay: filter binding; no nucleotide; 2 mM Mg2+; Filter binding: 20 mM Tris-HCl pH 7.5, 20 mM NaCl (25 mM in legends), 0.01 mM EDTA, 2 mM MgCl2, 40 ug/ml BSA, 0.1 mM DTT, 15 nM DNA, +/-1 mM ATP, 30 C, 10 min; conditions: protein: recombinant;recombinant; tags: FLAG inserted at position 499;; copies: 1;1; label: 5'-32P on AO3142; blunt
Sequence of Mlh1 (WT, FLAG);Pms1 (WT) (Saccharomyces cerevisiae (P38920 whole entry, chain 1 of 2): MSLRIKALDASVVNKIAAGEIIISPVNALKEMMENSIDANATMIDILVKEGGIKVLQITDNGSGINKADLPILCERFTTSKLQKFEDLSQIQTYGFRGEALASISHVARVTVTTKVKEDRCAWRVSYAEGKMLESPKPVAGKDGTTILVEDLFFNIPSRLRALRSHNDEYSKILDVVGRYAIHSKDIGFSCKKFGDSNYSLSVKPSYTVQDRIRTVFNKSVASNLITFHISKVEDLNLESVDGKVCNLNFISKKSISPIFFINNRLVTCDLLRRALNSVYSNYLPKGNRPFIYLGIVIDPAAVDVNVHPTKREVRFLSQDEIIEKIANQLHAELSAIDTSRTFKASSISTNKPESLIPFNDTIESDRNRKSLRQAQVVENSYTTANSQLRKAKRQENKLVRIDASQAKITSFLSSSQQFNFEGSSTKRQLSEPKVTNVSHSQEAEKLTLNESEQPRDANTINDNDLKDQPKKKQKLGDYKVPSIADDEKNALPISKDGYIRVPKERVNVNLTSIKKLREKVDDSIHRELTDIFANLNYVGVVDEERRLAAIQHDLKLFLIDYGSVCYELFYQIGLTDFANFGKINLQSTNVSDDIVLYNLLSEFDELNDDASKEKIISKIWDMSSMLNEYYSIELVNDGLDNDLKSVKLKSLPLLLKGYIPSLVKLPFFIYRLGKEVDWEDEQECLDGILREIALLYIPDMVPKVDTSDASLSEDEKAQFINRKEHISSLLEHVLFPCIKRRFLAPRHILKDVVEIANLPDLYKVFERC
Sequence of Mlh1 (WT, FLAG);Pms1 (WT) (Saccharomyces cerevisiae (P14242 whole entry, chain 2 of 2): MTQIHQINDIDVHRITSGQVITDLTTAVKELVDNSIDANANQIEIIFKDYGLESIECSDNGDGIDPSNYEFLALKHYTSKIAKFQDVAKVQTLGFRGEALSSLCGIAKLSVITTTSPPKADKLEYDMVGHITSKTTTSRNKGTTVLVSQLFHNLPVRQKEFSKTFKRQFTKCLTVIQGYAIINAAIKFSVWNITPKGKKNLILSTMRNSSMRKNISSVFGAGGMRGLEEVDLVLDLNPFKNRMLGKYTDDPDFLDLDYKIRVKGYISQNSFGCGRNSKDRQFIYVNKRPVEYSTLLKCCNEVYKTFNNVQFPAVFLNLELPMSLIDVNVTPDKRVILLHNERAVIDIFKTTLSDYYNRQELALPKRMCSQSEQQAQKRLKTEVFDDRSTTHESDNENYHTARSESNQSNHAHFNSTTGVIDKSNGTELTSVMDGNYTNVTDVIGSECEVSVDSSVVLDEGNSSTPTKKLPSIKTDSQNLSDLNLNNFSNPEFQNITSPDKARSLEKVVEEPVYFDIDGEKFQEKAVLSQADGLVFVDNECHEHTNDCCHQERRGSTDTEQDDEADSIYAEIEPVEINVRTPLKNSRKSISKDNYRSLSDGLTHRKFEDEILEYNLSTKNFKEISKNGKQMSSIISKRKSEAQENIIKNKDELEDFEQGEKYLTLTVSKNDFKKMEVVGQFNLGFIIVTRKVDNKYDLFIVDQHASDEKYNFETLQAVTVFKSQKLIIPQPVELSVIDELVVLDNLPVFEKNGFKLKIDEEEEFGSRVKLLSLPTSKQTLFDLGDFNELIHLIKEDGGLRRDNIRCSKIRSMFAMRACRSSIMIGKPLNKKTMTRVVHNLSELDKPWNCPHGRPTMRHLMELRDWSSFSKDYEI

[2] = target: Mlh1 del348-373 (FLAG);Pms1 del584-634 (DLDnull subunit) (Saccharomyces cerevisiae (expressed in …, UniProt P38920;P14242 1-769;1-873, del348-373|del584-634)); assay: filter binding; no nucleotide; 2 mM Mg2+; similar to WT; Filter binding: 20 mM Tris-HCl pH 7.5, 20 mM NaCl (25 mM in legends), 0.01 mM EDTA, 2 mM MgCl2, 40 ug/ml BSA, 0.1 mM DTT, 15 nM DNA, +/-1 mM ATP, 30 C, 10 min; conditions: protein: recombinant;recombinant; tags: FLAG inserted at position equivalent to 499;; copies: 1;1; label: 5'-32P on AO3142; blunt
Sequence of Mlh1 del348-373 (FLAG);Pms1 del584-634 (DLDnull subunit) (Saccharomyces cerevisiae (P38920 other isoform, or with tags, fused parts or gaps del348-373|del584-634, chain 1 of 2): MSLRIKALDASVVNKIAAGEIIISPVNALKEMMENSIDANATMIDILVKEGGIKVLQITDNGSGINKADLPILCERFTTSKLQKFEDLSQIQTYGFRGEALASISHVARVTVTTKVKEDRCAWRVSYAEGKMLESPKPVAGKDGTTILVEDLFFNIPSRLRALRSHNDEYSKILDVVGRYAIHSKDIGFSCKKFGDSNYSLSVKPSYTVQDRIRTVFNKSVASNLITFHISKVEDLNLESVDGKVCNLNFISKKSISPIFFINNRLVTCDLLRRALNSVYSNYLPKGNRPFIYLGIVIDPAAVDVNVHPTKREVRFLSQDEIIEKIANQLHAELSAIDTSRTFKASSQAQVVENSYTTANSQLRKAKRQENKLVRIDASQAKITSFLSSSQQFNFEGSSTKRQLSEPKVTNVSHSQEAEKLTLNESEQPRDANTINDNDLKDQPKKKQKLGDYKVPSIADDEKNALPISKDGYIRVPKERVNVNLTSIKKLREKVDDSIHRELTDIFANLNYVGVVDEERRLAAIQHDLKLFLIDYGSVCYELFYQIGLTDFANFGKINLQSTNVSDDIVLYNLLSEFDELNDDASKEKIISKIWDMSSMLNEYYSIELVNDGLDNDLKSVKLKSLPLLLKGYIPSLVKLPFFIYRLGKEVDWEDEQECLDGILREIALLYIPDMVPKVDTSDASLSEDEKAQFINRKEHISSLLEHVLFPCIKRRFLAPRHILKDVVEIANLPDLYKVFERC
Sequence of Mlh1 del348-373 (FLAG);Pms1 del584-634 (DLDnull subunit) (Saccharomyces cerevisiae (P14242 other isoform, or with tags, fused parts or gaps del348-373|del584-634, chain 2 of 2): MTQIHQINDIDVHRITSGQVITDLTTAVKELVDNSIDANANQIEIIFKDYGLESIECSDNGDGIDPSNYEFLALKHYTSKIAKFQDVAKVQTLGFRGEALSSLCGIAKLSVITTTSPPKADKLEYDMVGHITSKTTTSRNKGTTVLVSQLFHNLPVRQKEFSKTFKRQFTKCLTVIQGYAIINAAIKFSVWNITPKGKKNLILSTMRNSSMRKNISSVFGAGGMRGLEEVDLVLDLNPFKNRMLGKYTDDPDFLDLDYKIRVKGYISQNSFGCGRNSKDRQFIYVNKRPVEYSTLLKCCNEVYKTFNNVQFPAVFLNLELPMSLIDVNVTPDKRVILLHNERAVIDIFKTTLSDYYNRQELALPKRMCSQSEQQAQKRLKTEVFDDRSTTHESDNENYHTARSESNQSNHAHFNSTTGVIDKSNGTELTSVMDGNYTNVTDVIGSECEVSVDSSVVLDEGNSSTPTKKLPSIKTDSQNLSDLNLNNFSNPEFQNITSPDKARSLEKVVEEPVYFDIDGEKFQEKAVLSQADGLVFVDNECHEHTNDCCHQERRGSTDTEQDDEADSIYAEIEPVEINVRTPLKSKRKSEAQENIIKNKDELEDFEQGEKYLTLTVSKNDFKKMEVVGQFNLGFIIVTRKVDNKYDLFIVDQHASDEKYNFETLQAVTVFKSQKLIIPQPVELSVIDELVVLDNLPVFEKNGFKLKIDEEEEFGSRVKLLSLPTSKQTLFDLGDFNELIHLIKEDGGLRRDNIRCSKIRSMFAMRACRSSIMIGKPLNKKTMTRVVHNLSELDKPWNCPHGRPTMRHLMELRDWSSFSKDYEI

[3] = target: Mlh1 del348-373 (FLAG);Pms1 del438-487 (DLDMMR subunit) (Saccharomyces cerevisiae (expressed in …, UniProt P38920;P14242 1-769;1-873, del348-373|del438-487)); assay: as above; conditions: protein: recombinant;recombinant; tags: FLAG inserted at position equivalent to 499;; copies: 1;1; label: 5'-32P on AO3142; blunt
Sequence of Mlh1 del348-373 (FLAG);Pms1 del438-487 (DLDMMR subunit) (Saccharomyces cerevisiae (P38920 other isoform, or with tags, fused parts or gaps del348-373|del438-487, chain 1 of 2): as the sequence (P38920 other isoform, or with tags, fused parts or gaps del348-373|del584-634, chain 1 of 2) above
Sequence of Mlh1 del348-373 (FLAG);Pms1 del438-487 (DLDMMR subunit) (Saccharomyces cerevisiae (P14242 other isoform, or with tags, fused parts or gaps del348-373|del438-487, chain 2 of 2): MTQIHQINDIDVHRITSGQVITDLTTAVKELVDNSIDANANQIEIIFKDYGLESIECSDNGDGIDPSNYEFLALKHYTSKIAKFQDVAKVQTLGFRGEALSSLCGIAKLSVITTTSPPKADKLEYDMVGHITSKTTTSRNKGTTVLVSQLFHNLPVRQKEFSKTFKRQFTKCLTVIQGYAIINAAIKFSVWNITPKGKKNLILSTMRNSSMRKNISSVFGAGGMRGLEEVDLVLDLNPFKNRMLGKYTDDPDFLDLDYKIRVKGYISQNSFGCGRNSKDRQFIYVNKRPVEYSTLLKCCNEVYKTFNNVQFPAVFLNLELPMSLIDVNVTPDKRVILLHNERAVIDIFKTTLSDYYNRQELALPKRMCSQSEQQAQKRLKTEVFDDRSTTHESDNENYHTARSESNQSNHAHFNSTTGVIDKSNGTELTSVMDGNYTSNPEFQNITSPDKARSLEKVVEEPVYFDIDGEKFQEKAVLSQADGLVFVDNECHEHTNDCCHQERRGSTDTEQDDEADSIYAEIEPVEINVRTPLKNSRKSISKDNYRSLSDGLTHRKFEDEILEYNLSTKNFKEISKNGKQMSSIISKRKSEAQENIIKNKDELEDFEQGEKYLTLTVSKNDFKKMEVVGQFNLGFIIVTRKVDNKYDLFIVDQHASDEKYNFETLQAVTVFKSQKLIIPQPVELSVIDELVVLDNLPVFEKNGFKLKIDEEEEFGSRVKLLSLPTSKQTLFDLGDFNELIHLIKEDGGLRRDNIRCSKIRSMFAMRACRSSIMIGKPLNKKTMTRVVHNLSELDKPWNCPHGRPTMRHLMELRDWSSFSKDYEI

Measured: binding result

B1: 49-bp homoduplex AO3142/AO3144 (dsDNA)
DNA 1: GGGTCAACGTGGGCAAAGATGTCCTAGCAAGTCAGAATTCGGTAGCGTG
DNA 2: CACGCTACCGAATTCTGACTTGCTAGGACATCTTTGCCCACGTTGACCC
binds: all assays above
